Here are results for 2 molecules from patent publication US20100204100A1, “BIOLOGICAL AGENTS ACTIVE IN CENTRAL NERVOUS SYSTEM” (THE JOHNS HOPKINS UNIVERISTY, priority 2007, published 2010).

Positions count from the first letter of the chain named. Numbers in names are those of the source. Entries after “also recorded” stand apart in the source; their conditions may differ.

In one data set the test system is cultured spinal neurons. Briefly: In vitro delivery of Tat fusion peptide in cultured spinal neurons (Western blot, anti-His antibody). In kind it is cell-based. To be noted: 10 μM peptide, 30 min incubation, cultured mouse spinal neurons. How it is done:
In Vitro Delivery of Tat Fusion Peptide in Cultured Spinal Neurons. The intracellular delivery of Tat fusion peptide was assessed by Western blot analysis 30 min after application of 10 μM Tat-PSD-95 PDZ2 to cultured spinal neurons. The same dose of PSD-95 PDZ2 without Tat served as a control. Spinal cord neuronal cultures were prepared as previously described (O'Brien, et al., 1997) with minor modification. In brief, embryonic day 14 mouse spinal cord was digested for 45 min at 34° C. Cells were gently dissociated with a 5-ml pipette, filtered through a 70-μm filter, and centrifuged through a solution of 1% soybean trypsin inhibitor and 1% bovine serum albumin at 80×g for 10 min. High-density cultures were plated at 2 million cells/60-mm dish. Cell lysates from high-density cultures were solubilized in 1% Triton X-100/0.2% sodium dodecyl sulfate (SDS) and subjected to SDS-polyacrylamide gel electrophoresis (SDS-PAGE). Proteins were immunoblotted with monoclonal anti-His antibody (Sigma) and visualized with enhanced chemiluminescence (Amersham Biosciences, Piscataway, N.J.).
For orientation: A western blot detects proteins with antibodies after separation by electrophoresis.

The target of data set [1] is T1, interactions between NMDA receptor NR2B and PSD-95 protein (Mus musculus, UniProt Q01097).
T1 construct: from tissue; host or cells: NR2B: solubilized membrane fraction of mouse spinal lumbar enlargement
T1 sequence (Q01097 27-1482, other chains not shown): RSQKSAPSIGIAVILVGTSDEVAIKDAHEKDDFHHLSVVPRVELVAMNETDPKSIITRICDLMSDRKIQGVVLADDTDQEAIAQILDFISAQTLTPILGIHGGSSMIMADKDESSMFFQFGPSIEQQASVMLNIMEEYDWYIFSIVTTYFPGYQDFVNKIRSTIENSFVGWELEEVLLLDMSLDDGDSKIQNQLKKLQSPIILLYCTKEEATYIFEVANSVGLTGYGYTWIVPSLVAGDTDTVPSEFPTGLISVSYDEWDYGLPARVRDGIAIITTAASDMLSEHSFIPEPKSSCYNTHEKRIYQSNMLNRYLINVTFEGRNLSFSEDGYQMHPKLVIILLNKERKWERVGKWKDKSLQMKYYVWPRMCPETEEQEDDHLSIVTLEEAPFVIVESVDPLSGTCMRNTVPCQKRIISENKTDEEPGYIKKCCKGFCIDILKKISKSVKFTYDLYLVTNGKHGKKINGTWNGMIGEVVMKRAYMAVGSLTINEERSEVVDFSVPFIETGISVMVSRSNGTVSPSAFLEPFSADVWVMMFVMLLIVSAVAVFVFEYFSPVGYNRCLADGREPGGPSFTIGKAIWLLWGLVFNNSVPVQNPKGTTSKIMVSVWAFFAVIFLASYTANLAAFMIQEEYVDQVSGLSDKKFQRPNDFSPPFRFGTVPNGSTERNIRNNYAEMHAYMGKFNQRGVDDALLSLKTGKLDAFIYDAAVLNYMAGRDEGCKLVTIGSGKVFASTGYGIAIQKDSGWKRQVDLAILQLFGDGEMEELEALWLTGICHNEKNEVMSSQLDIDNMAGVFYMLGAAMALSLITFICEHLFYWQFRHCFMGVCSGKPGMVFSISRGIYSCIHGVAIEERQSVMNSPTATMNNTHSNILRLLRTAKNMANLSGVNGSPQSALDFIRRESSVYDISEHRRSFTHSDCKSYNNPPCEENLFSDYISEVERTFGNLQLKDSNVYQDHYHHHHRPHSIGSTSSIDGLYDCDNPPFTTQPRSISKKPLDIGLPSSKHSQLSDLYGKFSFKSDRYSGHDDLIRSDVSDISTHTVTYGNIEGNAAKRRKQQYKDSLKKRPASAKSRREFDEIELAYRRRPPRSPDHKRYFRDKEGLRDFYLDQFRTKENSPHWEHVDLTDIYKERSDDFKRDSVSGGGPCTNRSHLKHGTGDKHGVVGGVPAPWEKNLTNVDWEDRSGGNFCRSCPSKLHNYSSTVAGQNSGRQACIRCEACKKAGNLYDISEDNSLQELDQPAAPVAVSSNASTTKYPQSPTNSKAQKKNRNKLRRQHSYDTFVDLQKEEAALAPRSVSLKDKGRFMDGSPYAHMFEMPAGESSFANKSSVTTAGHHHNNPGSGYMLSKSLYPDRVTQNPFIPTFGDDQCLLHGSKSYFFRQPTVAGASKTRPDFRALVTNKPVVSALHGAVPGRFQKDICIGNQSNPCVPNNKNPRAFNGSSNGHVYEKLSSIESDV
Kind of data set: In vitro binding assay (GST pull-down) with GST-PSD-95 PDZ1,2 and spinal membrane fraction. As to conditions: for effect on interactions between GST-PSD-95 PDZ1,2 and NR2B (amount of NR2B pulled down): preincubation with different doses of peptide, 30 min; for effect on interactions between NMDAR NR2 subunits and PSD-95: summary of GST pull-down and co-immunoprecipitation (FIG. 2). How it is done:
In Vitro and In Vivo Binding Assays. […] Membrane-bound proteins from the spinal lumbar enlargement segments were extracted as described previously (Tao, et al., 2003a). For in vitro binding experiments (GST pull-down), the solubilized membrane fraction and GST fusion peptide were first preincubated with different concentrations of Tat-PSD-95 PDZ2 at room temperature for 30 min. Then the membrane fraction was mixed with the GST fusion peptide at room temperature for 1 h. The resin was washed five times with washing buffer (PBS plus 500 mM NaCl and 0.1% Triton X-100) and then boiled in 1×SDS-PAGE sample buffer to elute the bound proteins. After being separated by electrophoresis, the proteins were detected by immunoblotting with anti-GST antibody (Santa Cruz Biotechnology, Santa Cruz, Calif.) and anti-NR2B antibody (Upstate Biotechnology, Lake Placid, N.Y.). For in vivo binding experiments (co-immunoprecipitation), 5 μg of the affinity-purified rabbit NR2A/2B antibody (Chemicon, Temecula, Calif.) was incubated with 100 μl of protein A-Sepharose slurry for 1 h, and the complex was spun down at 2000 rpm for 4 min. The solubilized membrane fraction (500 μg) from the different groups of treated mice as mentioned-above then was added to the Sepharose beads, and the mixture was incubated for 2-3 h at 4° C. The mixture was washed once with 1% Triton X-100 in immunoprecipitation buffer [containing (in mM): 137 sodium chloride, 2.7 potassium chloride, 4.3 disodium hydrogen phosphate, 1.4 potassium dihydrogen phosphate, 5 ethylene glycol tetraacetic acid, 1 sodium vanadate, 10 sodium pyrophosphate, 50 sodium fluoride, 0.1 phenylmethylsulfonyl fluoride, and 20 U/ml Trasylol], twice with 1% Triton X-100 in immunoprecipitation buffer plus 300 mM sodium chloride, and three times with immunoprecipitation buffer. The proteins were separated by SDS-PAGE and detected by NR2A/2B or PSD-95 antibody (Upstate Biotechnology, Lake Placid, N.Y.). As a positive control (input), 50 μg of the solubilized membrane fraction was loaded onto the gel.

Data set [2] can be described thus: Baseline paw withdrawal threshold after peptide injection. The class given is in vivo, mouse. To be noted: mice without CFA, vs vehicle. How it is done: Behavioral Analysis. Mechanical sensitivity of the mice was measured with von Frey filaments (Stoelting, Wood Dale, Ill.) as described previously (Yang and Gereau, 2003). Mice were placed in Plexiglas testing boxes with a 1×1 cm^2 wire-mesh grid floor and habituated for 3 h before experiments. Each von Frey filament was applied to the mouse hind paw in ascending order until it bent at approximately 30° for about 3 s. The smallest filament that evoked a paw withdrawal response was taken as the mechanical threshold (paw withdrawal threshold). Similar sites were selected for measuring mechanical thresholds in all tested animals, and the thresholds were measured at approximately the same site throughout the experiment for each individual animal. Two to three measurements were made before CFA or fusion peptides injection, and the average was calculated as the baseline. Established inflammatory pain behaviors were induced by intraplantar injection of CFA solution (20 μl, 1 mg/ml). […] The effect of Tat fusion peptide on CFA-induced established inflammatory pain behaviors was expressed as % of baseline.

The nature of data set [3]: Tests for locomotor function (placing, grasping, righting reflexes). As to conditions: unanesthetized mice, 4 h after intraperitoneal injection, vs vehicle. In kind it is in vivo, mouse. An excerpt: Tests for Locomotor Function. Four hours after intraperitoneal injection of Tat fusion peptides, their effects on locomotor function were examined with the following tests as described previously (Coderre and Van, 1,1994; Tao, et al., 2003a). 1) Placing reflex: The mouse was held with hind limbs slightly lower than forelimbs and the dorsal surface of the hind paws was brought into contact with the edge of a table. The experimenter recorded whether the mouse placed its hind paws on the table surface reflexively; 2) Grasping reflex: The mouse was placed on a wire grid and the experimenter recorded whether the hind paws grasped the wire on contact; and 3) Righting reflex: The mouse was placed on its back on a flat surface and the experimenter noted whether it immediately assumed the normal upright position.
The effects of Tat fusion peptides on locomotor function were examined 4 h after intraperitoneal injection. The following tests were performed as described previously^23. 1) Placing reflex: The mouse was held with hind limbs slightly lower than forelimbs, and the dorsal surface of the hind paws was brought into contact with the edge of a table. The experimenter recorded whether the mouse placed its hind paws on the table surface reflexively; 2) Grasping reflex: The mouse was placed on a wire grid, and the experimenter recorded whether the hind paws grasped the wire on contact.

B1: Tat-PSD-95 PDZ2: His-tagged fusion peptide: HIV Tat minimal transduction domain (residues 47-57) fused to the second PDZ domain of PSD-95 (protein)
chain: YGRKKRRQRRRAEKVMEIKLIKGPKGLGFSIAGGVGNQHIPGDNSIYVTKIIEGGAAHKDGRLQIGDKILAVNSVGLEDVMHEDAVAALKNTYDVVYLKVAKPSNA
As to B1, in the data set with cultured spinal neurons, the “His-peptide detected in neurons (intracellular delivery), Western blotting with anti-His antibody” value is “detected only; also recorded: only detected”. Moreover, the “effect on NR2B being pulled down at high dose” value in data set [1] (16 μg peptide) is given as “completely prevented”. In data set [1], the “effect on interactions between GST-PSD-95 PDZ1,2 and NR2B (amount of NR2B pulled down)” value is reported as “dose-dependently inhibited; also recorded: dose-dependently reduced”; the “effect on interactions between NMDAR NR2 subunits and PSD-95” value is “markedly disrupted”. Also, the “effect on baseline paw withdrawal threshold” value in data set [2] is given as “no significant effect”. For the same molecule, the “effect on locomotor function (placing, grasping, righting reflexes)” value in data set [3] is “no effect; also recorded: did not show any effect”.

B2: mutated Tat-PSD-95 PDZ2: Control fusion peptide: Tat-PSD-95 PDZ2 with three sites critical for NMDAR/PSD-95 interaction mutated (K165T, L170R and H182L) (protein)
chain: B1 chain with K22T, L27R, H39L
B2: in data set [1], the “effect on interactions between GST-PSD-95 PDZ1,2 and NR2B (amount of NR2B pulled down)” value is reported as “no effect”; the “effect on interactions between NMDAR NR2 subunits and PSD-95” value was “no effect”.
